Measurements published in patent publication US20050079543A1 (ROCKEFELLER UNIVERSITY, published 2005).

Experiments:
[1] = target: T1, Stat91L, activated (from IFN-γ-treated C91L or Cmx cells) (human, UniProt P42224 2-750, activated by IFN-γ treatment of the cells; phosphotyrosine at 701 as stated for Stat91); assay: gel mobility shift with extracts of cells that express both proteins, with antisera
T1 construct: Expressed in U3A cells that lack Stat91/84; also called long form of Stat91; MNC-91L product; not shown: C-terminal tag of 34 amino acids encoded by the pMNC vector
T1 sequence: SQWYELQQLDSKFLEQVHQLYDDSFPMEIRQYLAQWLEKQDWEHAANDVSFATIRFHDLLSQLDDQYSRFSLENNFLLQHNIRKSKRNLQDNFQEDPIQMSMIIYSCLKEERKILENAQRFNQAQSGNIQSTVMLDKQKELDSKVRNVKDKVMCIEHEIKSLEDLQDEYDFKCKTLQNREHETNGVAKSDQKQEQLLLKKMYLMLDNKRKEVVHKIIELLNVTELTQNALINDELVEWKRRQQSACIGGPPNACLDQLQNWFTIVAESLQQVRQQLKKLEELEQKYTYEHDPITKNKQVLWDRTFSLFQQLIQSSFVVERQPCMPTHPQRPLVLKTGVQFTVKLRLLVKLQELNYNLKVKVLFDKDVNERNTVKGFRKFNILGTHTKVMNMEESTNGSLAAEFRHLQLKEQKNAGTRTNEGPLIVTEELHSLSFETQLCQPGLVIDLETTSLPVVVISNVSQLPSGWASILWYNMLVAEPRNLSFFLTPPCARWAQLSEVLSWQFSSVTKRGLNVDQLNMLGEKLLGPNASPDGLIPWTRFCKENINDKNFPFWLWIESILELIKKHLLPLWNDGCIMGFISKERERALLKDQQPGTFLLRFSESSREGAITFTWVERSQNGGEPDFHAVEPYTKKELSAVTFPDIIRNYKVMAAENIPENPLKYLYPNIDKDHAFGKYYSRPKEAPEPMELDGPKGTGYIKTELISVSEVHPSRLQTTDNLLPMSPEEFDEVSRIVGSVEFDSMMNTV
Description: (§1) Mobility shift analysis was performed with extracts from these stable cell lines (FIG. 18B). Extracts of IFN-γ-treated C84 cells produced a faster migrating gel shift band than extracts of treated C91L cells. Most importantly, extracts from IFN-γ-treated Cmx cells expressing both Stat84 and Stat91L proteins formed an additional intermediate gel shift band. Anti-91, an antiserum against the C-terminal 38 amino acids of Stat91 (12) that are absent in Stat84, specifically removed the top two shift bands seen with the Cmx extracts. Anti-91, an antiserum against amino acids 609 to 716 (15) that recognizes both Stat91L and Stat84, proteins inhibited the binding of all three shift bands. Thus, the middle band formed by extracts of the Cmx cells is clearly identified as a heterodimer of Stat84 and Stat91L. We concluded that both Stat91 and Stat84 bind DNA as homodimers and, if present in the same cell, will form heterodimers.

[2] = target: the molecule itself; assay: gel mobility shift with extracts of C84 cells
Description: as §1

B1: Stat84, activated (from IFN-γ-treated C84 or Cmx cells) (other)
chain: SQWYELQQLDSKFLEQVHQLYDDSFPMEIRQYLAQWLEKQDWEHAANDVSFATIRFHDLLSQLDDQYSRFSLENNFLLQHNIRKSKRNLQDNFQEDPIQMSMIIYSCLKEERKILENAQRFNQAQSGNIQSTVMLDKQKELDSKVRNVKDKVMCIEHEIKSLEDLQDEYDFKCKTLQNREHETNGVAKSDQKQEQLLLKKMYLMLDNKRKEVVHKIIELLNVTELTQNALINDELVEWKRRQQSACIGGPPNACLDQLQNWFTIVAESLQQVRQQLKKLEELEQKYTYEHDPITKNKQVLWDRTFSLFQQLIQSSFVVERQPCMPTHPQRPLVLKTGVQFTVKLRLLVKLQELNYNLKVKVLFDKDVNERNTVKGFRKFNILGTHTKVMNMEESTNGSLAAEFRHLQLKEQKNAGTRTNEGPLIVTEELHSLSFETQLCQPGLVIDLETTSLPVVVISNVSQLPSGWASILWYNMLVAEPRNLSFFLTPPCARWAQLSEVLSWQFSSVTKRGLNVDQLNMLGEKLLGPNASPDGLIPWTRFCKENINDKNFPFWLWIESILELIKKHLLPLWNDGCIMGFISKERERALLKDQQPGTFLLRFSESSREGAITFTWVERSQNGGEPDFHAVEPYTKKELSAVTFPDIIRNYKVMAAENIPENPLKYLYPNIDKDHAFGKYYSRPKEAPEPMELDGPKGTGYIKTELISVSEV
modifications: activated by IFN-γ treatment of the cells (tyrosine phosphorylation; Tyr-701 is stated for Stat91)
notes: Expressed in U3A cells that lack Stat91/84; also called MNC-84 product
What does the source list for B1?
binding result [1]: binds; binding result [2]: binds
